Laboratory results taken from PMC10402242.

Target: T1, macrophage migration inhibitory factor (MIF) (human (endogenous in MCF-7)), P14174
T1 chain: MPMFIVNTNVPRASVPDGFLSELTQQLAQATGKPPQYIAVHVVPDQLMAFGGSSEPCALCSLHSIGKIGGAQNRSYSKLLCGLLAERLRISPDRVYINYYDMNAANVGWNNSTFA
Assay: native MS; native top-down proteomics: whole cell lysates of MCF-7 and MCF-7-EGFR (EGFR-overexpressing) cells fractionated by native SEC, concentrated with molecular weight cutoff filters, direct ESI infusion FAIMS-MSn with HCD, Orbitrap detection; endogenous assemblies
Details: remark: other sources report otherwise

B1: macrophage migration inhibitory factor (MIF), P14174 1-115 (natural protein)
chain: T1 chain
modifications: here or on the partner: proteoforms released from the trimers: unmodified, nitrosylated at C80, acetylated at K77, truncated; phosphorylated subunits also reported (site not given); proteoforms released from the trimers: unmodified, nitrosylated at C80, acetylated at K77, truncated; phosphorylated subunits also reported (site not given)
  stoichiometry N: 3
